Source: patent US20240336661A1, “PEPTIDES DERIVED FROM RUMINOCOCCUS TORQUES” (University of Copenhagen, priority 2021, published 2024)

Key:
Caco-2 cell line = experiment: Intestinal barrier gene expression in Caco-2 cells (hypoxia/reoxygenation); format: cell-based, human; conditions: Caco-2, q-PCR
Description: (§1) FIG. 13. […] The cells were treated with various doses of RUCILP2, and cells were collected for q-PCR quantification on indicated genes. For integrin inhibitor treatment, cells were treated with 10 uM of cRGDyK (Selleckchem, #S7844) for 10 minutes and washed with PBS before treated with RUCILP2. Data are presented as mean+/−SEM of one representative experiment done in technical triplicate. Statistical significance was determined by unpaired two-tailed Student's t-test. *, p<0.05 vs 0 nM RUCILP2.
(§2) Commercially available Caco-2 cells (ATCC, #HTB-37) were seeded on 12-well plates under EMEM medium (Eagle's Minimum Essential Medium, ATCC, #30-2003), supplemented with 20% FBS (Fetal Bovine Serum, Fisher Scientific, #11550356) and 1% Penicillin-Streptomycin (Fisher Scientific, #11548876). Cell cultures were maintained in a humidified chamber with 5% CO2 at 37° C., and culture media were changed every 2-3 days.
At 70% confluence, to induce the hypoxia/reoxygenation (H/R) cell culture model, Caco-2 cells were cultured in EMEM medium (glucose and FBS free) and exposed to hypoxia conditions (94% N2, 5% C02 and 1% O2) at 37° C. for 120 minutes. Next, cells were treated for 24 hours with indicated concentrations of recombinant RUCILP2 or commercial recombinant irisin (Sigma, #SRP8039-10UG and Phoenix pharmaceuticals, #067-29A) or PBS immediately at the beginning of reoxygenation. […]

H9C2 cardiomyoblasts = experiment: Gene expression in H9C2 cardiomyoblasts; format: cell-based; conditions: q-PCR
Description: as §1
as §2, with “H9C2” for “Caco-2”, “#CRL-1446)” for “#HTB-37)”, “DMEM/F-12” for “EMEM”, “(Dulbecco's Modified Eagle Medium/Nutrient Mixture F-12, Fisher Scientific, #11524436),” for “(Eagle's Minimum Essential Medium, ATCC, #30-2003),”, “10%” for “20%”
At 70% confluence, the cells were treated with indicated concentrations of recombinant RUCILP2, commercial recombinant irisin (Sigma, #SRP8039-10UG and Phoenix pharmaceuticals, #067-29A), and PBS for 24 h. For integrin inhibitor treatment, cells were treated with 10 μM of CycloRGDyK (Selleckchem, #S7844) for 10 minutes and washed with PBS before treated with recombinant RUCILP2, commercial recombinant irisin and PBS. […]

[1] = Targeted proteomics (PRM) assay for RUCILP2 in human plasma; conditions: measured from 6 individuals
Source text: FIG. 25. Representative chromatogram showing the presence of RUCILP2 in fasting human plasma. Parallel reaction monitoring (PRM) elution profile for y-ions for the unique tryptic RUCILP2 peptide (EAAGYNVYVDGVK) found in human plasma samples. Top panel is PRM trace for the fragmental ions (box a) of light peptide found in human plasma sample, bottom panel is PRM trace for the fragmental ions (box b) of 10.0 femtomole of heavy isotope labelled (Lys ^13C6, […]) synthetic peptide (internal standard, IS) spiked into fractionated human plasma samples. Retention times for each peptide are labeled on the x axis, and y axis represents the relative intensity for each fragmental ion peak. One milliliter of human plasma sample was depleted of albumin and immunoglobulin G following deglycosylation. Deglycosylated plasma was resolved by SDS-PAGE and molecular mass regions corresponding to completely deglycosylated RUCILP2 (10-15 kDa) was excised and subsequently digested in-gel overnight before LC-MS/MS detection. Based on comparative analysis on relative intensities of fragmental ions found in processed human plasma and fragmental ions found in plasma spiked with heavy isotope labelled internal standards, we estimate the inter-individual concentrations of RUCILP2 in human plasma vary between 10 and 100 pg/ml. […]

[2] = Insulin biosynthesis, summarised in Example 6; format: cell-based

B1: RUCILP2: 87 amino acid irisin-like polypeptide cleaved from the Ruminococcus torques FNDC5-like protein RUMTOR_00181; recombinant, 6-His-tagged from E. coli (protein)
chain: APVDVKVSEITETSAKASWKNAADGKEAAGYNVYVDGVKLNKELLTEASCGLTNLKAETTYFVEVTAVDAAGNESVKSEKVTFKTLK
modifications: 6-His tag; Ruminococcus torques
notes: 87 amino acid irisin-like polypeptide cleaved from the Ruminococcus torques FNDC5-like protein RUMTOR_00181; recombinant, 6-His-tagged from E. coli
Caco-2 cell line
  expression of genes involved in intestinal integration: increases expression
H9C2 cardiomyoblasts
  gene expression in H9C2 cardiomyoblasts (markers of cardiomyogenesis): stimulate gene expression
[1]
  inter-individual concentration interval of RUCILP2 in human plasma: 10 to 100 µg/mL
[2]
  insulin biosynthesis: stimulates
